Test results reported in the nanobody polyreactivity screen of Harvey et al. (2022).

Assay: yeast display, Sf9 membrane polyspecificity reagent, FACS + sequencing; frameworks hold sequencing errors
Procedure, shortened: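 Nanobodies from a synthetic yeast display library (Saccharomyces cerevisiae BJ5465), induced 36–48 hours with galactose, were stained 1 hour at 4 °C with 10% biotinylated, detergent-solubilized Sf9 membrane reagent, enriched on streptavidin microbeads, then FACS-sorted. Anti-HA (expression) and streptavidin (reagent binding) fluorescence set low and high (top ~1%) gates. Polyreactivity labels come from the gate of origin. Genes were colony-PCR amplified, MiSeq 2 × 250 sequenced and filtered by CDR length.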

With “QVQLVESGGGLVQAGGSLRLSCAPSGSIYTPYAMGWYRPAPGKLRELVADISRSGSTNYADSVKGRFTISLDNAKKTVYLQMNSLKPEDTAVYYCNADFWWHWGTSYDYWGQGTQVTVSS” as the sequence, how does the “polyreactivity (PSR sort gate)” value read?
The value was “high polyreactivity”.

Which “polyreactivity (PSR sort gate)” value does the source give for “QVQLVESGGGLVQAGGSLRLSCAPSGSTFDRNDMGWYRQAPGKERELVAAISRVSSTNYADSVKVRFTISRDNAKNTVYLQMNSLKPADTAVYYCAADRAGSIMNYWGQGTQETVSS” here?
Its value is “low polyreactivity”.

With “QVQLVESGGGLVQAGGSLRLSCAPSGSTFFLYVMGWYRQAPGKEREWVAAITSGGRTYYADSVKGRFTISRDNAKNTVYLQMNSLKREDTAVYYCAADVRRVRVGKYDYWGQGPQVTVSS” as the sequence, how does the “polyreactivity (PSR sort gate)” value read?
The value was “high polyreactivity”.

For “QVQLVESGGGLVQAGGSLRLSCAPSGSTFNNYALGGYRQAPGKERELVAAIRSIGGSTYYADSVKGRFTISRDNAKNTVYLQMNSLKPEDTAVYYCAADYFYLKWYEYWGQGTQVTVSS”, which “polyreactivity (PSR sort gate)” value is on record?
The value was “high polyreactivity”.

Which “polyreactivity (PSR sort gate)” value does the source give for “QVQLVESGGGLVQAGGSLRLSCAPSGSTLTSNAMGWYRQAPGKERELVAASRSGGSTNYADSVKGRFTISRDNAKNTVYLQMNSLKPEDTAVYYCNKDFLWQGYGYSRVSYDYWGQGTQVTVSS” here?
Its value is “low polyreactivity”.

For “QVQLVESGGGLVQAGGSLRLSCASGSTYVYAMGWYRQAPGKERELVATISSTGSTYYADSVKGRFTISRDNAKNTVYLQMNSLKQEDTAVYYCAADVWNNGWIYGSYDEYDYWGQGTQVTVSS”, which “polyreactivity (PSR sort gate)” value is on record?
The value was “high polyreactivity”.

Which “polyreactivity (PSR sort gate)” value does the source give for “QVQLVESGGGLVQAGGSLRLSCASSGIIFYPNAMGWYRQAPAKERELVAAITSDGSTYYADSVKGRFTISRDNAMNTVYLQMNRLKPEDTAVYYCAAWEDYGYDYWGQGTQVTVSS” here?
Its value is “low polyreactivity”.

For “QVQLVESGGGLVQAGGSLRLSCASSGIILYAYAKGWYRQAPGKERELVAAISRSGGRTYYADSVKGRFTISRDKAKNTVYLQMNSLKPEDTAVYYCATVTRYPDGHRFDYWGQGTQVTVSS”, which “polyreactivity (PSR sort gate)” value is on record?
Its value is “high polyreactivity”.

Which “polyreactivity (PSR sort gate)” value does the source give for “QVQLVESGGGLVQAGGSLRLSCASSGITFPFYTMGWYRQAPGKERELVAAISSRGTSTYYADSVKGRFTISRDNAKNTVYLQMNSLKPEDTAVYYCKARATPQRAYDSWGQGTQVTVSS” here?
The value was “high polyreactivity”.

Which “polyreactivity (PSR sort gate)” value does the source give for “QVQLVESGGGLVQAGGSLRLSCASSGITFVRYAMAWYRPAPGKERELVAVISRGGITNYADSVKGRFTISRDNAKNTVYFQMNSLKPEDTGVYYCNREKRIRSSGGLYYWGQGTQVSVSS” here?
The value was “high polyreactivity”.

With “QVQLVESGGGLVQAGGSLRLSCASSGLIFGANAMGWYRQAPVKARELVAVITSDGSTDYADSVKGRFIISRDNAKNTVYLQMNSLKPEDTAVYYCATTFYLIFGYTYSAYYYWGHGTQVTVSS” as the sequence, how does the “polyreactivity (PSR sort gate)” value read?
The value was “high polyreactivity”.

With “QVQLVESGGGLVQAGGSLRLSCASSGLIFGRNVMGWYRQAPGKERELVAAISWSGGRTYYADSVKGRFTISRDNAKNTVYLQMNSLKPEDTAVYYCAADDGPGFDYWGQGTQVTVSS” as the sequence, how does the “polyreactivity (PSR sort gate)” value read?
Its value is “high polyreactivity”.

For “QVQLVESGGGLVQAGGSLRLSCASSGLIFSIYAMGWYRQAPGKERELVAAIRWSGGSTYYADSVKGRFTISRDNAKNTVYLQMNSLKPEDTAVYYCNADITVYVRIYQYNYCGQGTQVTVSS”, which “polyreactivity (PSR sort gate)” value is on record?
Its value is “low polyreactivity”.

For “QVQLVESGGGLVQAGGSLRLSCASSGLIFYKNAMGWYRQAPGKVRELVAAISWRDGRTYYADSVKGRFTISRDNAKNTVYLQMNSLKPEDTAVYYCNAVRGITYYDYFYWGQGTQVTVSS”, which “polyreactivity (PSR sort gate)” value is on record?
Its value is “high polyreactivity”.

With “QVQLVESGGGLVQAGGSLRLSCASSGLTFKQYAMVWYRQAPGKERELVAAITVSGGDTYYADSVKGRFTISRDNAKNTVYLQMNSLKPEDTAVYYCAAEHFFWGYDYWGQGTQVTVSS” as the sequence, how does the “polyreactivity (PSR sort gate)” value read?
Its value is “high polyreactivity”.

For “QVQLVESGGGLVQAGGSLRLSCASSGLTFRYNAMGWYRQAPGKERELVAAIRTSGGSTYYADSVKGRFTISRDNAKNTVYLQMNSLKPEDTAVYYCAARSKSYYGGYARGYWGQGTQVTVSS”, which “polyreactivity (PSR sort gate)” value is on record?
The value was “high polyreactivity”.

With “QVQLVESGGGLVQAGGSLRLSCASSGNTFTVNAMGWYRQAPGKERELVAAINYSGGSTYYADSVKGRFTISRDNAKNTVYLQMNSLKPEDTAVYYCAASPDELLYEMYYWGQGTQVTVSS” as the sequence, how does the “polyreactivity (PSR sort gate)” value read?
The value was “low polyreactivity”.

With “QVQLVESGGGLVQAGGSLRLSCASSGNTFYGYAMGWYRQAPGKERELVASITLSGDSTYYADSVKGRFTISRDNAKNTVYLQMNSLKPEDTAVYYCAGVYTYPLGYYHYTYDYWGQGTQVTVSS” as the sequence, how does the “polyreactivity (PSR sort gate)” value read?
The value was “low polyreactivity”.

Which “polyreactivity (PSR sort gate)” value does the source give for “QVQLVESGGGLVQAGGSLRLSCASSGRIFKYYSMGCYRQSPGKVRELVASISWSGGSTYYADSVKGRFTISRDNAKNTVYLQMNSLKPEDTAVYYCAAYVTYLRYRSNIAYYGYDYWGQGTQVTVSS” here?
The value was “high polyreactivity”.

For “QVQLVESGGGLVQAGGSLRLSCASSGRIFRYYDMGWYRQAPGKERELVASITSGGSTNYADSVKGRFTISRDNAKNTVYLQMNSLKPEDTAVYYCAARWGYARANGYDYWGQGTQVTVSS”, which “polyreactivity (PSR sort gate)” value is on record?
The value was “high polyreactivity”.

For “QVQLVESGGGLVQAGGSLRLSCASSGRTFAGNVMGWYRQAPGKERELVAAITGRGGSTYYADSVKGRFTISRDNAKNTVYLQMNSLKPEDTAVYYCNALTWPRYYYWGQGTQVTVSS”, which “polyreactivity (PSR sort gate)” value is on record?
Its value is “high polyreactivity”.

Which “polyreactivity (PSR sort gate)” value does the source give for “QVQLVESGGGLVQAGGSLRLSCASSGRTFALYAMGWYRKAPGKERELVAGITFRGGSTYYADSVKGRFTISRDNAKKTVYLQMISQKPEDNAVYYCAAERWRWYYSWNMDYWGQCTQVTVSS” here?
Its value is “high polyreactivity”.

For “QVQLVESGGGLVQAGGSLRLSCASSGRTFLHNAMGWYRQAPGKERELVAAISSRGGSTYYADSVKGRFTISRDNAKNTVYLQMNSLKPEDTAVYYCAADLVVYRYDYWGQGTQVTVSS”, which “polyreactivity (PSR sort gate)” value is on record?
Its value is “high polyreactivity”.

Which “polyreactivity (PSR sort gate)” value does the source give for “QVQLVESGGGLVQAGGSLRLSCASSGRTFPGNAMGWYRQAPGKERELVATISSGGTTNYADSVKGRFTISRDNAKNTVYLQMNSLKPDDTAFYYCATDTYHHKADYEYWGQGTQVTLSS” here?
Its value is “low polyreactivity”.

Which “polyreactivity (PSR sort gate)” value does the source give for “QVQLVESGGGLVQAGGSLRLSCASSGRTFTKYAMGWYRHPPGKESELVAAISRSGGSTYYADSVKGRFTISRDNAKNTVYLQMNSLKPEDTAVYYWAARGQYRYSFGDYSWGQGTQVTVSS” here?
Its value is “high polyreactivity”.

With “QVQLVESGGGLVQAGGSLRLSCASSGRTLGGYAMGWYRQAPGKERELVAAITRRGGSTYYADSVKGRFTISRDNAKNTVYLLMNSLKTEDTAVYYCAARWYARSLTRFNYWGEGTQVTVSS” as the sequence, how does the “polyreactivity (PSR sort gate)” value read?
The value was “high polyreactivity”.

Which “polyreactivity (PSR sort gate)” value does the source give for “QVQLVESGGGLVQAGGSLRLSCASSGSIFVLNAMGWYRQAPVKESELVAGITYSGGSTYYADSVKGRFTISRDNAKNTVYLQMNSLKPEDTAVYYWSAPVRRYPYPGRFYYWGQGTQVTVSS” here?
Its value is “low polyreactivity”.

Which “polyreactivity (PSR sort gate)” value does the source give for “QVQLVESGGGLVQAGGSLRLSCASSGSIFYPYAMGWYRPAPGKERELVAAISSGGTTYYADSVKGRFTISRDNAKNTVYLQMNSLKPEDTAVYYCAAGFYLRAVWMDYWGQGTQVTVSS” here?
The value was “high polyreactivity”.

Which “polyreactivity (PSR sort gate)” value does the source give for “QVQLVESGGGLVQAGGSLRLSCASSGSIFYYTEIGWYRQAPGKERELVAAISWGDGITYYADSVKGRFTISRDYAKNTVSLLMNSLKPEDTAFYYCAVDYYYLPFDYWGQGTQGTVSS” here?
Its value is “high polyreactivity”.

With “QVQLVESGGGLVQAGGSLRLSCASSGSISYYAMGWYRQAPGKERELVAAISSGGSTYYADSVKGRFTISRDNAKNTVYLQMNSLKPEDTAVYYCAVRYIIRGYATRYYYWGQGTQVTVSS” as the sequence, how does the “polyreactivity (PSR sort gate)” value read?
Its value is “high polyreactivity”.
